# Measured values as given in the supplement of paper PMC9112550, “Optimization of the antimicrobial peptide Bac7 by deep mutational scanning” (BMC Biology, 2022).
# System: Escherichia coli TOP10
# Test: shrunken log2 fold change of peptide-encoding DNA abundance (4.5 h post-induction vs induction); higher = less antimicrobial activity (less host growth inhibition)
# Settings: time post-induction: 4.5 h; library: site-saturation at positions 5, 18, 19, 20
# 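Note: peptides expressed intracellularly from a pBAD plasmid library in pooled LB shake-flask culture, induced with 0.3% L-arabinose, DNA abundance read by NGS, three biological replicates, DESeq2 with apeglm shrinkage.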
row,Sequence,shrunken log2 fold change
1,RRIRRRPPRLPRPRPRPEPLPRP,0.137
2,RRIRYRPPRLPRPRPRPVDSPRP,0.0413
3,RRIRGRPPRLPRPRPRPWGRPRP,0.413
4,RRIRRRPPRLPRPRPRPSISPRP,-0.774
5,RRIRIRPPRLPRPRPRPFWMPRP,-0.192
6,RRIRTRPPRLPRPRPRPEMFPRP,-0.0156
7,RRIRRRPPRLPRPRPRPLSHPRP,0.0117
8,RRIRTRPPRLPRPRPRPMREPRP,0.864
9,RRIRSRPPRLPRPRPRPIEFPRP,-0.387
10,RRIRDRPPRLPRPRPRPVAQPRP,0.616
11,RRIRCRPPRLPRPRPRPFWGPRP,0.0697
12,RRIRMRPPRLPRPRPRPMTFPRP,-0.512
13,RRIRIRPPRLPRPRPRPQFLPRP,-0.186
14,RRIRHRPPRLPRPRPRPLHPPRP,-0.148
15,RRIRQRPPRLPRPRPRPCYEPRP,-0.0157
16,RRIRARPPRLPRPRPRPPSIPRP,-0.108
17,RRIRNRPPRLPRPRPRPLFLPRP,-0.547
18,RRIRVRPPRLPRPRPRPMHSPRP,-0.179
19,RRIRFRPPRLPRPRPRPFDEPRP,-0.983
20,RRIRFRPPRLPRPRPRPGGMPRP,-0.0381
21,RRIRSRPPRLPRPRPRPRGEPRP,0.754
22,RRIRGRPPRLPRPRPRPISFPRP,0.0122
23,RRIRLRPPRLPRPRPRPYHIPRP,-0.713
24,RRIRGRPPRLPRPRPRPDHKPRP,-0.154
25,RRIRDRPPRLPRPRPRPFFNPRP,-0.156

row,Sequence,shrunken log2 fold change
1,RRIRERPPRLPRPRPRPCPCPRP,-0.341
2,RRIRKRPPRLPRPRPRPIPKPRP,0.499
3,RRIRVRPPRLPRPRPRPSSEPRP,-0.327
4,RRIRKRPPRLPRPRPRPMIAPRP,0.509
5,RRIRCRPPRLPRPRPRPYHPPRP,-0.539
6,RRIRRRPPRLPRPRPRPCIVPRP,-0.183
7,RRIRYRPPRLPRPRPRPHFQPRP,-0.399
8,RRIRNRPPRLPRPRPRPLDRPRP,0.0215
9,RRIRMRPPRLPRPRPRPQYVPRP,-0.0961
10,RRIRLRPPRLPRPRPRPFHIPRP,-0.292
11,RRIRGRPPRLPRPRPRPDRSPRP,0.23
12,RRIRFRPPRLPRPRPRPTGFPRP,0.0467
13,RRIRIRPPRLPRPRPRPAWCPRP,-0.0802
14,RRIRLRPPRLPRPRPRPRSRPRP,0.394
15,RRIRARPPRLPRPRPRPENQPRP,0.153
16,RRIRDRPPRLPRPRPRPEIWPRP,0.162
17,RRIRGRPPRLPRPRPRPKDKPRP,0.558
18,RRIRARPPRLPRPRPRPMRFPRP,0.869
19,RRIRNRPPRLPRPRPRPVHPPRP,-0.0892
20,RRIRPRPPRLPRPRPRPTTSPRP,0.181
21,RRIRFRPPRLPRPRPRPNLAPRP,-0.0885
22,RRIRRRPPRLPRPRPRPARYPRP,0.317
23,RRIRMRPPRLPRPRPRPGQDPRP,0.781
24,RRIRERPPRLPRPRPRPSHYPRP,-0.611
25,RRIRSRPPRLPRPRPRPHKSPRP,-0.414

row,Sequence,shrunken log2 fold change
1,RRIRCRPPRLPRPRPRPPDNPRP,0.0386
2,RRIRHRPPRLPRPRPRPDRHPRP,-0.159
3,RRIRWRPPRLPRPRPRPRLWPRP,0.414
4,RRIRERPPRLPRPRPRPYIWPRP,0.0553
5,RRIRWRPPRLPRPRPRPEAYPRP,0.212
6,RRIRSRPPRLPRPRPRPDTIPRP,-1.3
7,RRIRTRPPRLPRPRPRPLGFPRP,0.046
8,RRIRNRPPRLPRPRPRPNPKPRP,0.284
9,RRIRTRPPRLPRPRPRPHTTPRP,-0.166
10,RRIRVRPPRLPRPRPRPKMDPRP,-0.093
11,RRIRGRPPRLPRPRPRPDKNPRP,0.32
12,RRIRTRPPRLPRPRPRPLAVPRP,-0.0185
13,RRIRVRPPRLPRPRPRPHTPPRP,-0.271
14,RRIRYRPPRLPRPRPRPIWFPRP,-0.269
15,RRIRIRPPRLPRPRPRPDTKPRP,-0.188
16,RRIRCRPPRLPRPRPRPGAGPRP,0.364
17,RRIRIRPPRLPRPRPRPHIVPRP,-0.0875
18,RRIRLRPPRLPRPRPRPFVTPRP,-0.303
19,RRIRKRPPRLPRPRPRPGIAPRP,1.46
20,RRIRCRPPRLPRPRPRPSVGPRP,0.0128
21,RRIRRRPPRLPRPRPRPVKIPRP,0.266
22,RRIRERPPRLPRPRPRPSCYPRP,-0.941
23,RRIRLRPPRLPRPRPRPTQWPRP,0.453
24,RRIRIRPPRLPRPRPRPKWKPRP,-0.152
25,RRIRHRPPRLPRPRPRPTKEPRP,-0.0586
